B2: Histag-Ct_HPt (residues 9-175), labelled with Red-Tris NTA dye (natural protein)
chain: ADRAQDHNNNNTPRNSNYVVEEEEVSEEEEEAIMMPDFGDHVDTSIFGQILEMDEGDDHDFSAPLVLNFFEQAEETFQKMETALNNKDLPELSKLGHFLKGSSATLGFTKIRDSCQLIQQYGHGLNVDGSSEPDEGVCLKKIAEALASARVDTVALHKMMREFFEY
modifications: Red-Tris NTA Dye bound to the Histag

What all share (test): MST; Histag-Ct_HPt labelled with Red-Tris NTA dye held constant; REC-1 domain in sixteen two-fold dilutions from 1 mM (0.32 mM for REC_hHK6); PBS + 0.05% Tween-20; medium MST power; hyperbolic fit, 1:1 model; mean of two titrations
Common to all, as to conditions: both partners purified

Test [1] has as its target B2.
The target in test [2] is T1, REC_(hHK3), REC-1 domain of hybrid histidine kinase hHK3 (group III, ortholog of Nik1) from Chaetomium … (Chaetomium thermophilum).
T1 construct: REC-1 (receiver) domain of hHK3, CTHT_0053860, group III hybrid histidine kinase of C. thermophilum; not shown: His6, N-terminal, cleaved

The target in test [3] is T2, REC_(hHK6), REC-1 domain of hybrid histidine kinase hHK6 (group VI, ortholog of Sln1) from Chaetomium … (Chaetomium thermophilum).
T2 construct: REC-1 (receiver) domain of hHK6, CTHT_0050920, group VI hybrid histidine kinase of C. thermophilum (protein ends at residue 1290); also called REC_(hHK6)-BeF; not shown: His6, N-terminal, cleaved

The values that follow come from article PMC11224324, “Structural and functional insights underlying recognition of histidine phosphotransfer protein in fungal phosphorelay systems” (Communications Biology, 2024).

B1: REC_(hHK3) N1107A/N1110A, double mutant of the REC-1 domain of hHK3 from Chaetomium thermophilum (domain or fragment)
chain: ENRATPSLADNTRSFEILLAEDAAVAQRLAVKILEKYHHVVTVVGNGEEAVEAVKRKKFDVILMDVQMPVMGGFEATAKIREYEASLPTPQRTPIIALTAHAMMGDREKCLEAQMDEYLSKPLQQANLIQTILKCA
With B1, in test [1], the equilibrium dissociation constant (Kd) was found to be 46 ± 0.07 µM.
Take B2: the Kd was 28 ± 0.1 µM in test [2] and 13 ± 0.04 µM in test [3].

The Kd is the free concentration of one partner at which half of the binding sites on the other are occupied at equilibrium, for simple one-to-one binding.
